Experimental findings from article PMC10362042 (Nature Communications, 2023) are described below.

Values joined by “and” are separate entries in the source; they are usually repeats but may differ in a detail not shown here. Equal values may be shown once.

Holding throughout (assay): SPR
Common to all, as to conditions: both partners purified

Experiment [1] has as its target T1, SARS-CoV-2 Omicron BA.1 RBD (residues 319-541) (SARS-CoV-2, UniProt P0DTC2 319-541).
The target of experiment [2] is T2, SARS-CoV-2 Omicron BA.4/5 RBD (residues 319-541) (SARS-CoV-2, UniProt P0DTC2 319-541).
Experiment [3] concerns the target T3, SARS-CoV-2 Omicron BA.2 RBD (residues 319-541) (SARS-CoV-2, UniProt P0DTC2 319-541).
For experiment [4], the target named is T1, SARS-CoV-2 Omicron BA.1 RBD (residues …). The source holds these as a separate data set.
Experiment [5] addresses T2, SARS-CoV-2 Omicron BA.4/5 RBD (residues …). This is another data set of the same source.
For experiment [6], the target named is T3, SARS-CoV-2 Omicron BA.2 RBD (residues …). This is another data set of the same source.
Experiment [7] deals with SARS-CoV-2 Omicron BA.4/5 RBD (residues 319-541) (SARS-CoV-2, UniProt P0DTC2 319-541). This is another data set of the same source.
Experiment [8] deals with SARS-CoV-2 Omicron BA.2 RBD (residues 319-541) (SARS-CoV-2, UniProt P0DTC2 319-541). The source holds these as a separate data set.
In experiment [9] the target is SARS-CoV-2 Omicron BA.1 RBD (residues 319-541) (SARS-CoV-2, UniProt P0DTC2 319-541). This is another data set of the same source.

B1: Golden Hamster ACE2 (residues 1-615) (receptor)
chain: QSIIEEQAKTFLDKFNQEAEDLSYQSALASWNYNTNITEENAQKMNEAAAKWSAFYEEQSKLAKNYSLQEVQNLTIKRQLQALQQSGSSALSADKNKQLNTILNTMSTIYSTGKVCNPKNPQECLLLEPGLDDIMATSTDYNERLWAWEGWRAEVGKQLRPLYEEYVVLKNEMARANNYEDYGDYWRGDYEAEGADGYNYNGNQLIEDVERTFKEIKPLYEQLHAYVRTKLMNTYPSYISPTGCLPAHLLGDMWGRFWTNLYPLTVPFGQKPNIDVTDAMVNQGWNAERIFKEAEKFFVSVGLPYMTQGFWENSMLTDPGDDRKVVCHPTAWDLGKGDFRIKMCTKVTMDNFLTAHHEMGHIQYDMAYATQPFLLRNGANEGFHEAVGEIMSLSAATPEHLKSIGLLPSDFQEDNETEINFLLKQALTIVGTLPFTYMLEKWRWMVFKGDIPKEQWMEKWWEMKREIVGVVEPLPHDETYCDPAALFHVSNDYSFIRYYTRTIYQFQFQEALCQAAKHDGPLHKCDISNSTEAGQKLLNMLRLGKSEPWTLALENVVGARNMDVRPLLNYFEPLSVWLKEQNKNSFVGWNTDWSPYAD
B1: the Kd in [1] is 277 nM and 230 nM and 296 nM and 268 nM. Also, in experiment [2], the Kd is 118 nM and 117 nM and 166 nM and 133 nM; the on-rate (kon) was 26000 M⁻¹ s⁻¹ and 13000 M⁻¹ s⁻¹ and 16000 M⁻¹ s⁻¹. Besides, in [3], the Kd was 174 nM and 106 nM and 167 nM and 149 nM; the koff was 0.86 s⁻¹ and 1 s⁻¹ and 0.75 s⁻¹; the kon is 2.5e+06 M⁻¹ s⁻¹ and 3e+06 M⁻¹ s⁻¹ and 2e+06 M⁻¹ s⁻¹.

B2: Horse ACE2 (receptor)
chain: QSTTEDLAKTFLEKFNSEAEELSHQSSLASWSYNTNITDENVQKMNEAGARWSAFYEEQCKLAKTYPLEEIQNLTVKRQLQALQQSGSSVLSADKSKRLNEILNTMSTIYSTGKVCNPSNPQECLLLEPGLDAIMENSKDYNQRLWAWEGWRSEVGKQLRPLYEEYVVLKNEMARANNYEDYGDYWRGDYEAEGPSGYDYSRDQLIEDVERTFAEIKPLYEHLHAYVRAKLMDTYPSHINPTGCLPAHLLGDMWGRFWTNLYSLTVPFGQKPNIDVTDAMVDQSWDAKRIFEEAEKFFVSVGLPNMTQGFWENSMLTEPGDGRKVVCHPTAWDLGKGDFRIKMCTKVTMDDFLTAHHEMGHIQYDMAYAVQPYLLRNGANEGFHEAVGEIMSLSAATPNHLKAIGLLPPDFYEDSETEINFLLKQALTIVGTLPFTYMLEKWRWMVFKGEIPKEEWMKKWWEMKREIVGVVEPVPHDETYCDPAALFHVANDYSFIRYYTRTIYQFQFQEALCQTAKHEGPLHKCDISNSTEAGQKLLQMLSLGKSEPWTLALERIVGVKNMDVRPLLNYFEPLFTWLKDQNKNSFVGWSTNWSPYAD
In the case of B2, in experiment [4], the Kd is 7440 nM and 7790 nM and 8720 nM and 7980 nM; the koff is 0.23 s⁻¹ and 0.25 s⁻¹ and 0.26 s⁻¹; the kon is 30000 M⁻¹ s⁻¹ and 32000 M⁻¹ s⁻¹. In experiment [5], the Kd was 455 nM and 445 nM and 459 nM and 453 nM; the koff is 0.02 s⁻¹ and 0.021 s⁻¹; the kon is 45000 M⁻¹ s⁻¹ and 46000 M⁻¹ s⁻¹. Besides, in experiment [6], the Kd is 38200 nM and 38800 nM and 44600 nM and 40500 nM; the koff was 0.38 s⁻¹ and 0.37 s⁻¹; the kon is 9800 M⁻¹ s⁻¹ and 9600 M⁻¹ s⁻¹ and 8400 M⁻¹ s⁻¹.

B3: Cat ACE2 (receptor)
chain: QSTTEELAKTFLEKFNHEAEELSYQSSLASWNYNTNITDENVQKMNEAGAKWSAFYEEQSKLAKTYPLAEIHNTTVKRQLQALQQSGSSVLSADKSQRLNTILNAMSTIYSTGKACNPNNPQECLLLEPGLDDIMENSKDYNERLWAWEGWRAEVGKQLRPLYEEYVALKNEMARANNYEDYGDYWRGDYEEEWTDGYNYSRSQLIKDVEHTFTQIKPLYQHLHAYVRAKLMDTYPSRISPTGCLPAHLLGDMWGRFWTNLYPLTVPFGQKPNIDVTDAMVNQSWDARRIFKEAEKFFVSVGLPNMTQGFWENSMLTEPGDSRKVVCHPTAWDLGKGDFRIKMCTKVTMDDFLTAHHEMGHIQYDMAYAVQPFLLRNGANEGFHEAVGEIMSLSAATPNHLKTIGLLSPGFSEDSETEINFLLKQALTIVGTLPFTYMLEKWRWMVFKGEIPKEQWMQKWWEMKREIVGVVEPVPHDETYCDPASLFHVANDYSFIRYYTRTIYQFQFQEALCRIAKHEGPLHKCDISNSSEAGKKLLQMLTLGKSKPWTLALEHVVGEKKMNVTPLLKYFEPLFTWLKEQNRNSFVGWNTDWRPYADQSIKVRISLKSALGDEAYEWNDNEMYLFRSSVAYAMREYFSKVKNQTIPFVEDNVWVSNLKPRISFNFFVTASKNVSDVIPRSEVEEAIRMSRSRINDAFRLDDNSLEFLGIQPTLSPPYQPPVT
For the molecule B3, in experiment [7], the Kd is 149 nM (2×) and 166 nM and 155 nM; the koff was 0.069 s⁻¹ and 0.071 s⁻¹ and 0.079 s⁻¹; the kon was 470000 M⁻¹ s⁻¹ and 570000 M⁻¹ s⁻¹ and 380000 M⁻¹ s⁻¹. In experiment [8], the Kd was 133 nM and 128 nM and 158 nM and 140 nM; the koff is 0.014 s⁻¹ and 0.036 s⁻¹ and 0.029 s⁻¹; the kon is 180000 M⁻¹ s⁻¹ and 200000 M⁻¹ s⁻¹ and 100000 M⁻¹ s⁻¹. In experiment [9], the Kd is 60.8 nM and 78.5 nM and 65.2 nM and 68.2 nM; the kon is 2.8e+06 M⁻¹ s⁻¹ and 4.2e+06 M⁻¹ s⁻¹ and 2e+06 M⁻¹ s⁻¹.
